Experiments:
Settings in all cases: label: 5'-FAM; single strand
[1] = biological target: T1, terminal deoxynucleotidyltransferase (TdT) (human, UniProt P04053 1-509); experiment: MST; 5.0 mM Mg2+; MST with 5.0 mM Mg2+ (Mn2+ or Co2+ in other runs, concentration not given); buffer, salt, pH and temperature not in the material
[2] = biological target: T1, terminal deoxynucleotidyltransferase …; experiment: MST; Mn2+; Kd treated by authors as estimate; MST with 5.0 mM Mg2+ (Mn2+ or Co2+ in other runs, concentration not given); buffer, salt, pH and temperature not in the material
[3] = biological target: T1, terminal deoxynucleotidyltransferase …; experiment: MST; Co2+; Kd treated by authors as estimate; MST with 5.0 mM Mg2+ (Mn2+ or Co2+ in other runs, concentration not given); buffer, salt, pH and temperature not in the material

T1 sequence (P04053 whole entry): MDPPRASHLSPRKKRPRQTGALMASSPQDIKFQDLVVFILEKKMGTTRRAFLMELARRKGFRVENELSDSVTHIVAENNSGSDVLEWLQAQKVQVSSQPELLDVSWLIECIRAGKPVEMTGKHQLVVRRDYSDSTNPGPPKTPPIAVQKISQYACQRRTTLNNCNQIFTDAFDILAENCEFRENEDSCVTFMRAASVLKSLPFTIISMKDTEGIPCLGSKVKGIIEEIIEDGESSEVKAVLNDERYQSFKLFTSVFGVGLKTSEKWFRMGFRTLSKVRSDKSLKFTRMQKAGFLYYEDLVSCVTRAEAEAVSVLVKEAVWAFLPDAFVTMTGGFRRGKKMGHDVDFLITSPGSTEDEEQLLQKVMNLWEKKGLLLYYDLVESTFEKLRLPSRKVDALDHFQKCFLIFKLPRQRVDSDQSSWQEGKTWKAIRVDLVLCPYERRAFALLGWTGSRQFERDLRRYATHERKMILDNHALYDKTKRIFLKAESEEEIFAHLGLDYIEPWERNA

GGAAGA (ssDNA) [DNA primer FAM-GGAAGA]
Kd [1]: 4600 ± 100 nM | Kd [2]: 800 ± 200 nM | Kd [3]: 700 ± 100 nM

Source: publication PMC9348634, “Insight into the mechanism of DNA synthesis by human terminal deoxynucleotidyltransferase”
